Results: patent US20140219992

Key:
[1] = biological target: T1, fluorogenic peptide substrate IX, Mca-K-P-L-G-L-Dpa-A-R-NH2
T1 chain: KPLGLAR

[2] = biological target: serum-derived protein (Zucker rat)

B1: wild-type human matrix metalloprotease 1 (hMMP-1), purified and trypsin-activated (protein)
chain: FVLTEGNPRWEQTHLTYRIENYTPDLPRADVDHAIEKAFQLWSNVTPLTFTKVSEGQADIMISFVRGDHRDNSPFDGPGGNLAHAFQPGPGIGGDAHFDEDERWTNNFREYNLHRVAAHELGHSLGLSHSTDIGALMYPSYTFSGDVQLAQDDIDGIQAIYGRSQNPVQPIGPQTPKACDSKLTFDAITTIRGEVMFFKDRFYMRTNPFYPEVELNFISVFWPQLPNGLEAAYEFADRDEVRFFKGNKYWAVQGQNVLHGYPKDIYSSFGFPRTVKHIDAALSEENTGKTYFFVANKYWRYDEYKRSMDPGYPKMIAHDFPGIGHKVDAVFMKDGFFYFFHGTRQYKFDPKTKRILTLQKANSWFNCRKN
Which results are given for B1?
KM (µM), enzyme kinetics at 1 mM Ca^2+, 37° C. [1]: 20.6 µM; KM (µM), enzyme kinetics at 10 mM Ca^2+, 37° C. [1]: 21.1 µM; enzymatic activity against the fluorogenic peptide substrate after incubation in 10% Zucker rat serum, 1 mM Ca^2+, 25° C. [2]: The activity of MMP-1 in 1 mM Ca^2+ buffer was unaffected by incubation with serum over the course of the study

B2: MMP-1 mutant GVSK (G159V/S208K), purified and trypsin-activated (protein)
chain: FVLTEGNPRWEQTHLTYRIENYTPDLPRADVDHAIEKAFQLWSNVTPLTFTKVSEGQADIMISFVRGDHRDNSPFDGPVGNLAHAFQPGPGIGGDAHFDEDERWTNNFREYNLHRVAAHELGHSLGLKHSTDIGALMYPSYTFSGDVQLAQDDIDGIQAIYGRSQNPVQPIGPQTPKACDSKLTFDAITTIRGEVMFFKDRFYMRTNPFYPEVELNFISVFWPQLPNGLEAAYEFADRDEVRFFKGNKYWAVQGQNVLHGYPKDIYSSFGFPRTVKHIDAALSEENTGKTYFFVANKYWRYDEYKRSMDPGYPKMIAHDFPGIGHKVDAVFMKDGFFYFFHGTRQYKFDPKTKRILTLQKANSWFNCRKN
How did the KM (µM), enzyme kinetics at 1 mM Ca^2+, 37° C. [1] turn out when B2 was run?
Its KM (µM), enzyme kinetics at 1 mM Ca^2+, 37° C. is 16.5 µM.

And the KM (µM), enzyme kinetics at 10 mM Ca^2+, 37° C. [1]?
The KM (µM), enzyme kinetics at 10 mM Ca^2+, 37° C. was 11 µM.

What about the “enzymatic activity lost after 15 minutes in 10% Zucker rat serum, 1 mM Ca^2+, 25° C.” value [2] of the same protein?
Its value is “After 15 minutes of serum incubation, one-third of the activity of GVSK in 1 mM Ca^2+ was lost”.

And the “enzymatic activity remaining after 30 minutes in 10% Zucker rat serum, 1 mM Ca^2+, 25° C.” value [2]?
The value was “less than 50% of activity remained after 30 minutes”.

And the “enzymatic activity remaining after 2 hours in 10% Zucker rat serum, 1 mM Ca^2+, 25° C.” value [2]?
The value was “only approximately 17% of the activity of GVSK in 1 mM Ca^2+ remained”.

And the “enzymatic activity remaining after 2 hours in 10% Zucker rat serum, 10 mM Ca^2+, 25° C.” value [2]?
The value was “approximately 74% of the original activity remaining by the 2 hour time point”.
